The record followed here is article PMC3847324, “Jun dimerization protein 2 is a critical component of the Nrf2/MafK complex regulating the response to ROS homeostasis”.

In series [1] the target is T1, IVT-Nrf2;IVT-JDP2 (;mouse, UniProt Q60795;P97875 1-597;1-163, |).
T1 sequence 1: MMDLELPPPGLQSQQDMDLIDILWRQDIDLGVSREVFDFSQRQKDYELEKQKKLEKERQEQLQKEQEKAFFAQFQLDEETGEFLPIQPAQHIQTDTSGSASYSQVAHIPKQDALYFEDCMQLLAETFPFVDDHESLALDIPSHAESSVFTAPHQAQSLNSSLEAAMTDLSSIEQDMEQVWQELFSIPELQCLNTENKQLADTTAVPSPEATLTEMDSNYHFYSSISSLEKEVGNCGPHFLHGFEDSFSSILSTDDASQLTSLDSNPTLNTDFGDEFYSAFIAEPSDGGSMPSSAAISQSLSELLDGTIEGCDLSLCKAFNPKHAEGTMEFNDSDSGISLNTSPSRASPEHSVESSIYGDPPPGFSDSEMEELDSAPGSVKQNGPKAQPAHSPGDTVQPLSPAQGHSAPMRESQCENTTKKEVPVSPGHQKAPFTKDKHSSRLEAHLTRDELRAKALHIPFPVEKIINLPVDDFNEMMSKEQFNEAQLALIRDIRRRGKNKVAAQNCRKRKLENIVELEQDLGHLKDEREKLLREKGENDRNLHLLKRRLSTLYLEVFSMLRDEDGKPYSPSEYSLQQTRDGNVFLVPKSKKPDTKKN
T1 sequence 2: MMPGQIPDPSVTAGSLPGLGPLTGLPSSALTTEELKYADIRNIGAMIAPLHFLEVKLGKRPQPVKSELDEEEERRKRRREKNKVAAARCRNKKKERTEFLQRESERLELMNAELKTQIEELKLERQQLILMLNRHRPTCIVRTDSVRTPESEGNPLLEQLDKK
In words: EMSA; EMSA: 5 ug GST fusion or 10 ng IVT protein, 25 C 30 min; 5% native PAGE in 0.5x TBE at 4 C; binding buffer, salt and pH not given. The following applies: protein: ivt;ivt; tags: ;; copies: 1;1; label: 32P 5' end (T4 kinase) as probe; blunt.

Series [2] deals with IVT-Nrf2;IVT-JDP2;IVT-MafK (;mouse;rat, UniProt Q60795;P97875;Q8K4B3 1-597;1-163;1-156, ||). The series is described as follows: EMSA; large complex with higher DNA-binding activity; EMSA: 5 ug GST fusion or 10 ng IVT protein, 25 C 30 min; 5% native PAGE in 0.5x TBE at 4 C; binding buffer, salt and pH not given. The following applies: tags: ;;, label: 32P 5' end (T4 kinase) as probe, blunt.

B1: human NQO1-ARE WT (dsDNA)
DNA 1: CAGTCACAGTGACTCAGCAGAATCT
DNA 2: AGATTCTGCTGAGTCACTGTGACTG
As to B1, the binding result in series [1] and in series [2] was “binds” each time.
